Experimental data as given in paper PMC9482650, “Quantitative fragmentomics allow affinity mapping of interactomes” (Nature Communications, 2022).

Columns and labels:
Assay in all cases: holdup assay
Design in all cases: key: below the threshold = too weak to quantify, mostly under pKd 3.1 to 4
Conditions in all cases: plain residues with an end cap or a label only (N-terminal biotin on a linker: ado-ado)
[1] = target: T1, ARHGAP21, Q5T5U3
T1 sequence (Q5T5U3 45-169, limits assumed, looked up): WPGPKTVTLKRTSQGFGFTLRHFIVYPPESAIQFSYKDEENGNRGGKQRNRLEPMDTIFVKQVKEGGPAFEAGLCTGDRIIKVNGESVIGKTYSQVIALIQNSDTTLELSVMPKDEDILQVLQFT

[2] = target: T2, ARHGEF11, O15085
T2 sequence (O15085 42-136, limits assumed, looked up): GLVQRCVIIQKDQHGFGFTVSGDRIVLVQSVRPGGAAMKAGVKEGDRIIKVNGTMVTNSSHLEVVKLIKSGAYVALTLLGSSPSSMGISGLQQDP

[3] = target: T3, DFNB31_3, Q9P202
T3 sequence (Q9P202 811-907, limits assumed, looked up): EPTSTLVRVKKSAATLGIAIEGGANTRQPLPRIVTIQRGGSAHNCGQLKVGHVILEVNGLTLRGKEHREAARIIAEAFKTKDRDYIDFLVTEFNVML

[4] = target: DLG4_2, P78352
[5] = target: FRMPD2_1, Q68DX3
[6] = target: T4, GRIP1_2, Q9Y3R0
T4 sequence (Q9Y3R0 145-248, limits assumed, looked up): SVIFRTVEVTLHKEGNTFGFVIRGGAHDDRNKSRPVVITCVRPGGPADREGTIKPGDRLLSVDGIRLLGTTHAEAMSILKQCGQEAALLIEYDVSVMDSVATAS

[7] = target: T5, GRIP1_7, Q9Y3R0
T5 sequence (Q9Y3R0 999-1096, limits assumed, looked up): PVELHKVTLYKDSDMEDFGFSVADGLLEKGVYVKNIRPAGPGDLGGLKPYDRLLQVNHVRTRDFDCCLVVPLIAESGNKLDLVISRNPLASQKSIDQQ

[8] = target: GRIP2_5, Q9C0E4
[9] = target: IL16_3, Q14005
[10] = target: IL16_4, Q14005
[11] = target: Inadl_3, Q8NI35
[12] = target: LAP2, Q96RT1
[13] = target: LNX1_3, Q8TBB1
[14] = target: T6, LNX2_3, Q8N448
T6 sequence (Q8N448 463-564, limits assumed, looked up): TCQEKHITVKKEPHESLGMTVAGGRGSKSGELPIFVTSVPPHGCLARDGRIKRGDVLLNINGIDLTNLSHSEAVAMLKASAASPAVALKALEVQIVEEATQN

[15] = target: MAGI2_3, Q86UL8
[16] = target: MAGI2_6, Q86UL8
[17] = target: MAST1, Q9Y2H9
[18] = target: T7, MPDZ_10, O75970
T7 sequence (O75970 1624-1722, limits assumed, looked up): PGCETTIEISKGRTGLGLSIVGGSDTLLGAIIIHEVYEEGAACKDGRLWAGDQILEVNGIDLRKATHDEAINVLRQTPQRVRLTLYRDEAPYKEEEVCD

[19] = target: T8, MPDZ_12, O75970
T8 sequence (O75970 1857-1958, limits assumed, looked up): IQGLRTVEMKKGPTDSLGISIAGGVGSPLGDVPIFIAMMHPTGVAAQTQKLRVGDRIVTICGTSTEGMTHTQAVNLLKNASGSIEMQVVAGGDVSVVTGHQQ

[20] = target: T9, NHERF3_4, Q5T2W1
T9 sequence (Q5T2W1 373-468, limits assumed, looked up): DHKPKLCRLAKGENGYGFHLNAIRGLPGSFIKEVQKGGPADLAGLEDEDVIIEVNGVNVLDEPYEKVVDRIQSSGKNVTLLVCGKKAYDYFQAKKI

[21] = target: T10, PARD3B_1, Q8TEW8
T10 sequence (Q8TEW8 196-299, limits assumed, looked up): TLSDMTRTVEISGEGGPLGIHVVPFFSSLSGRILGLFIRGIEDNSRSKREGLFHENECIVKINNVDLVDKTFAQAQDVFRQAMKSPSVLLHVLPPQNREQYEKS

[22] = target: T11, PCLO, Q9Y6V0
T11 sequence (Q9Y6V0 4491-4600, limits assumed, looked up): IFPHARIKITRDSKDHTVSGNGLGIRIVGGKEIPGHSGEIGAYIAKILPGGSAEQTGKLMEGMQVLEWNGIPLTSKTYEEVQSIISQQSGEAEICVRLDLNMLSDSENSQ

[23] = target: T12, SIPA1L2, Q9P2F8
T12 sequence (Q9P2F8 945-1036, limits assumed, looked up): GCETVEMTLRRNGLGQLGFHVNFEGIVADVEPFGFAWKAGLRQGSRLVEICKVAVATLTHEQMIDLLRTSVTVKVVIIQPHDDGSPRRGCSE

[24] = target: T13, SNTB1, Q13884
T13 sequence (Q13884 107-205, limits assumed, looked up): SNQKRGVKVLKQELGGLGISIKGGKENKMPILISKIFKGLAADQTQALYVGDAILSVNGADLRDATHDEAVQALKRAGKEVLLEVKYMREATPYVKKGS

IL16_3, Q14005, sequence (Q14005 1107-1207): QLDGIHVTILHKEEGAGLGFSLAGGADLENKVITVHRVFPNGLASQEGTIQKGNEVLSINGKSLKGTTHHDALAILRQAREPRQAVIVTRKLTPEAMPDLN
Inadl_3, Q8NI35, sequence (Q8NI35 359-469): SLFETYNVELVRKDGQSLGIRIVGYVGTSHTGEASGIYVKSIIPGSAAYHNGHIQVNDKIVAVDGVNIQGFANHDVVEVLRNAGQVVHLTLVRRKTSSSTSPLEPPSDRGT
LNX1_3, Q8TBB1, sequence (Q8TBB1 500-596): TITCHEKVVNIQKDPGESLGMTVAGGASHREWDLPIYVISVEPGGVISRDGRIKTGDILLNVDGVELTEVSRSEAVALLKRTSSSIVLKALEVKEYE
LAP2, Q96RT1, sequence (Q96RT1 other isoform, or with tags, fused parts or gaps): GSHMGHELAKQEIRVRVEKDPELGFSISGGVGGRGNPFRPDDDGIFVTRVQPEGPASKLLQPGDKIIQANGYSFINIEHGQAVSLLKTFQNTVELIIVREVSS
MAGI2_6, Q86UL8, sequence (Q86UL8 1141-1229): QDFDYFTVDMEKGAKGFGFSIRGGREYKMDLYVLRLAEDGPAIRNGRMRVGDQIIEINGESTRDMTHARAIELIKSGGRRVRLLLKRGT
MAST1, Q9Y2H9, sequence (Q9Y2H9 962-1065): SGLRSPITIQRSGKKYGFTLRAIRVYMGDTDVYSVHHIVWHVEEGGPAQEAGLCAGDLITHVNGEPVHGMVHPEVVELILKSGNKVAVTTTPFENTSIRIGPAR
FRMPD2_1, Q68DX3, sequence (Q68DX3 770-861): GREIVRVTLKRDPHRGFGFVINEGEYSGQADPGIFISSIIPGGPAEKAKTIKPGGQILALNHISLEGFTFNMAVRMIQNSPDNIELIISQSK
MAGI2_3, Q86UL8, sequence (Q86UL8 600-682): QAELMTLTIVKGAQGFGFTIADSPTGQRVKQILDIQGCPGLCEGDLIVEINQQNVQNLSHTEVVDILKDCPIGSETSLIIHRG
IL16_4, Q14005, sequence (Q14005 1229-1329): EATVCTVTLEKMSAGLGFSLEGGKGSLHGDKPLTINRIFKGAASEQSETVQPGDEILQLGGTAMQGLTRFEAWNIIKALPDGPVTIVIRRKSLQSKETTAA
DLG4_2, P78352, sequence (P78352 155-259): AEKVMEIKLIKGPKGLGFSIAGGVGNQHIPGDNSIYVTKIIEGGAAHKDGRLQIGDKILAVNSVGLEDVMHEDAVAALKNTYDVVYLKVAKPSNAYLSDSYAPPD
GRIP2_5, Q9C0E4, sequence (Q9C0E4 544-642): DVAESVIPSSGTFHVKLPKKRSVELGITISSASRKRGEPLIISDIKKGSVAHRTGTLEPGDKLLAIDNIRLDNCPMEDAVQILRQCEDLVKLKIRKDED

Row | Binder | pKd [1] | pKd [2] | pKd [3] | pKd [4] | pKd [5] | pKd [6] | pKd [7] | pKd [8] | pKd [9] | pKd [10] | pKd [11] | pKd [12] | pKd [13] | pKd [14] | pKd [15] | pKd [16] | pKd [17] | pKd [18] | pKd [19] | pKd [20] | also measured
1 | DRIQSCLSDA [SBF1, O95248] | below the threshold | below the threshold | 3.74 | below the threshold | below the threshold | below the threshold | below the threshold | below the threshold | below the threshold | below the threshold | below the threshold | below the threshold | below the threshold | below the threshold | below the threshold | below the threshold | 3.62 | below the threshold | 3.49 | below the threshold | pKd [21]: below the threshold; pKd [22]: below the threshold; pKd [23]: below the threshold; pKd [24]: below the threshold
2 | SFISKKEWYV [NECTIN1, Q15223] | 4.04 | 4.41 | below the threshold | 3.73 | 4.22 | below the threshold | 5.06 | below the threshold | below the threshold | below the threshold | 4.83 | below the threshold | 4.49 | below the threshold | below the threshold | 3.56 | 3.95 | below the threshold | below the threshold | below the threshold | pKd [21]: 4.73; pKd [22]: below the threshold; pKd [23]: below the threshold; pKd [24]: below the threshold
3 | PSVGSKKTVL [REELD1, A0A1B0GV85] | 3.93 | 4.2 | below the threshold | below the threshold | below the threshold | below the threshold | below the threshold | below the threshold | below the threshold | 3.6 | below the threshold | below the threshold | below the threshold | below the threshold | below the threshold | below the threshold | 4.2 | below the threshold | below the threshold | 3.87 | pKd [21]: 4.62; pKd [22]: below the threshold; pKd [23]: below the threshold; pKd [24]: 3.56
4 | LKDDELKTKL [SLCO1A2, P46721] | 3.91 | 3.98 | below the threshold | below the threshold | below the threshold | below the threshold | below the threshold | below the threshold | below the threshold | 3.61 | below the threshold | below the threshold | below the threshold | below the threshold | below the threshold | below the threshold | 4.64 | below the threshold | below the threshold | 4.91 | pKd [21]: 3.84; pKd [22]: below the threshold; pKd [23]: below the threshold; pKd [24]: below the threshold
5 | DTKNYKQTSV [CRIPT, Q9P021] | 3.75 | 4.12 | below the threshold | 4.9 | below the threshold | below the threshold | below the threshold | below the threshold | below the threshold | 3.71 | below the threshold | 4.32 | below the threshold | below the threshold | 3.94 | 3.75 | 4.82 | 3.98 | below the threshold | 3.56 | pKd [21]: 3.48; pKd [22]: below the threshold; pKd [23]: below the threshold; pKd [24]: 4.73
6 | AEASVACSLC [PTGIR, P43119] | below the threshold | below the threshold | 3.75 | below the threshold | below the threshold | below the threshold | below the threshold | below the threshold | below the threshold | below the threshold | below the threshold | below the threshold | below the threshold | below the threshold | below the threshold | below the threshold | below the threshold | 3.47 | 3.48 | below the threshold | pKd [21]: below the threshold; pKd [22]: below the threshold; pKd [23]: below the threshold; pKd [24]: below the threshold
